Reference: patent publication US20190151346A1, “COMBINATIONS THERAPIES FOR THE TREATMENT OF CANCER” (INSERM (INSTITUTE NATIONAL DE LA SANTÉ ET DE LA RECHERCHE …, priority 2016, published 2019)

What was measured:
Assay type in all cases: cell-based
Src = assay: Tyrosine phosphorylation by Western blotting: Src phosphorylation in TNBC cell lines
Method: (§1) BT20 and MDA-MB468 triple negative (HER2-, ER-, PR-) were obtained from American Type Culture Collection (ATCC N°HTB19, and ATCC N°HTB132, respectively). The LumB, and Her2-, ER-, PR-negative IJG-1731 cell line was previously established at the laboratory as described (Mombelli et al. Sci Rep. 2015 Jul. 8; 5:11874.) BT20 and IJG-1731 cells were grown in complete RPMI-1640 media with L-glutamine, supplemented with 10% fetal calf serum (FCS) and penicillin—streptomycin solution (100 μg/ml each) (Life technology, Saint-Aubain, France). MDA-MB468 cells were grown in a complete DMEM-F12 media with glutamine, 10% FCS and penicillin—streptomycin. All cells were maintained in a humidified 5% CO2 atmosphere at 37° C. All experiments were conducted with cells at confluency and starved for an overnight.
(§2) Cells (3×10^5) were seeded in 6-well plates in complete medium for 24 hours then starved for another overnight. Cells were then stimulated with IL-17E (10 ng/ml), EGF (10 ng/ml), or a combination of both for 30 min in serum-free medium. Cells were then lysed in 1% Triton X100 buffer and left on ice for 1 hours. Protein samples were then subjected to 8% SDS-PAGE. Western blotting using specific antibodies assessed then the phosphorylation of the various kinases.

EGFR [1] = assay: Tyrosine phosphorylation by Western blotting: EGFR phosphorylation in TNBC cell lines; details: IJG-1731, BT-20 and MDA-MB468; 10 ng/ml; FIG. 1
Method: BT20 and MDA-MB468 triple negative (HER2-, ER-, PR-) were obtained from American Type Culture Collection (ATCC N°HTB19, and ATCC N°HTB132, respectively). […] MDA-MB468 cells were grown in a complete DMEM-F12 media with glutamine, 10% FCS and penicillin—streptomycin. All cells were maintained in a humidified 5% CO2 atmosphere at 37° C. All experiments were conducted with cells at confluency and starved for an overnight.
as §2

STAT3 [2] = assay: Tyrosine phosphorylation by Western blotting: STAT3 phosphorylation in TNBC cell lines; details: 10 ng/ml
Method: as §1, §2

PYK-2 = assay: Tyrosine phosphorylation by Western blotting: PYK-2 phosphorylation in TNBC cell lines; details: three cell lines; 10 ng/ml; FIG. 1
Method: as §1, §2

EGFR [3] = assay: Immunofluorescence microscopy: localization of EGFR; details: MDA-MB468; 10 ng/ml, 2 hours; FIG. 4A, FIG. 7
Method: as §1
Cells (4.10^3) were grown on Lab-Tek chambers slide in their respective complete culture medium for 24 hours then starved for an overnight. Cells were then stimulated with IL-17E (long/ml), EGF (10 ng/ml) or a combination of both for 2 hours at 37° C., washed, and fixed with 4% paraformaldehyde (PFA)-PBS solution at 4° C. […] Slides were mounted with mounting medium containing Dapi then visualized with a Leica DMRB fluorescence microscope and images analysis was performed with the Archimed Software (Microvision).

EGFR [4] = assay: Cellular fractionation and Western blotting: EGFR and pY1086EGFR translocation to the nucleus; details: MDA-MB468 cytoplasmic and nuclear fractions; FIG. 4A
Method: as §1
(§3) Cells (3×10^5) were seeded in 6-well plates in complete medium for 24 hours then starved for another overnight. Cells were stimulated for 2 hours at 37° C. with IL-17E (10 ng/ml), EGF (long/ml), or a combination of both as indicated. Cells were then washed with PBS and lysed in a lysis buffer (HEPES 10 mM, MgCl2 15 mM KCl 10 mM, DTT 0.5 mM, PMSF 0.2 mM, 1 mM Na3VO4, 10 mM NaF, 0.5% Nonidet P-40). […] Protein concentrations were determined by using Bradford method. […]

STAT3 [5] = assay: Cellular fractionation and Western blotting: STAT3 and pSTAT3 translocation to the nucleus; details: MDA-MB468 fractions
Method: as §1, §3

Row | Molecule | phosphorylation of Src at Y416 at suboptimal concentrations (Src; MDA-MB468, IL-17E 1 ng/ml alone or EGF 0.1-1 ng/ml alone, FIG. 3) | phosphorylation of Src at Y416 (Src; three cell lines, 10 ng/ml, FIG. 1) | intensity of induced EGFR phosphorylation (EGFR [1]) | phosphorylation of STAT3-α and -β at Y705 (STAT3 [2]; IJG-1731 and BT20 cell lines, FIGS. 1A and B) | phosphorylation of STAT3-α and -β (STAT3 [2]; MDA-MB468 cell line) | phosphorylation of PYK2 at Y402 (PYK-2) | translocation of EGFR (immunofluorescence) (EGFR [3]) | translocation of non-phosphorylated EGFR form to the nucleus (EGFR [4]) | translocation of phosphorylated EGFR (pY1086EGFR) to the nucleus (EGFR [4]) | phosphorylation of STAT3α and β (STAT3 [5])
1 | IL-17E: pro-inflammatory cytokine, product of the human IL-17E gene, also named IL-25 (protein, UniProt Q9H293 33-177, looked up) Interleukin-25: YSHWPSCCPSKGQDTSEELLRWSTVPVPPLEPARPNRHPESCRASEDGPLNSRAISPWRYELDRDLNRLPQDLYHARCLCPHCVSLQTGSHMDPRGNSELLYHNQTVFYRRPCHGEKGTHKGYCLERRLYRVSLACVCVRPRVMG | failed to induce any significant phosphorylation | induced the phosphorylation | comparable to that induced by EGF | induced considerable phosphorylation | less evident | induced the phosphorylation | induced the translocation of EGFR to the nucleus but to a lower extends compared to EGF | fairly translocate | failed to induce its significant translocation to the nucleus | induced the phosphorylation
2 | IL-17B: cytokine, product of the human IL-17B gene; ligand of IL-17RB (protein, UniProt Q9UHF5 21-180, looked up) Interleukin-17B: QPRSPKSKRKGQGRPGPLAPGPHQVPLDLVSRMKPYARMEEYERNIEEMVAQLRNSSELAQRKCEVNLQLWMSNKRSLSPWGYSINHDPSRIPVDLPEARCLCLGCVNPFTMQEDRSMVSVPVFSQVPVRRRLCPPPPRTGPCRQRAVMETIAVGCTCIF |  |  |  |  |  |  | induced a translocation from the membrane to cytoplasm with a strong perinuclear reorganization |  |  | 
